Measured values taken from patent US8409836B2, “Treatment of cellulosic material and enzymes useful therein” (Roal Oy, priority 2005, dated 2013).

Experiments:
[1] = Isoelectric focusing (PhastSystem), pI of purified protein; type: physicochemical; settings: IEF gel
Experimental: The sample was dissolved in water and applied to a Superdex 75 HR 10/30 gel filtration column equilibrated with 20 mM sodium phosphate pH 6.0, containing 0.15 M NaCl. Fractions were collected and those containing endoglucanase activity were combined. The protein eluate was judged to be pure by SDS-polyacrylamide gel electrophoresis and the molecular mass was evaluated on the basis of molecular mass standards (prestained SDS-PAGE standards, Broad Range, Bio-Rad) to be 54 kDa. The pI of the purified protein, designated as Ct EG—54 was determined with PhastSystem (Pharmacia) to be ca 5.5.
The sample was applied to a Sephacryl S-100 HR 26/60 gel filtration column equilibrated with 50 mM sodium acetate buffer pH 5.0, containing 0.05 M NaCl. The protein fraction containing endoglucanase activity was eluted from the column with a retention volume corresponding to a molecular weight of 16 kDa. Collected fractions were combined, concentrated and gel filtration was repeated. The protein eluate was judged to be pure by SDS-polyacryl amide gel electrophoresis and the molecular weight was evaluated to be 28 kDa. The pI of the purified protein, designated as Ta EG—28, was determined in an IEF gel (PhastSystem, Pharmacia) to be about 3.5. The specific activity of Ta EG—28 at 50° C. was determined to be 4290 nkat/mg (procedure of IUPAC 1987, using CMC as substrate).
The active material from the anion exchange chromatography was applied to a Sephacryl S-300 HR 26/60 column equilibrated with 20 mM sodium phosphate pH 6.5, containing 0.15 M NaCl. The protein with β-glucosidase activity was eluted with a retention volume corresponding to a molecular weight of 243 kDa. The protein was judged to be pure by SDS-polyacrylamide gel electrophoresis and the molecular weight was evaluated to be 101 kDa. The pI of the purified protein, designated as At βG—101, was determined in an IEF gel (PhastSystem, Pharmacia) to be in the area of 5.6-4.9. The specific activity of At βG—101 at 50° C. was determined to be 1100 nkat/mg (using 4-nitrophenyl-β-D-glucopyranoside as substrate, Bailey and Linko, 1990).
The active material from the cation exchange chromatography was applied to a Sephacryl S-300 HR 26/60 column equilibrated with 20 mM sodium phosphate pH 7.0, containing 0.15 M NaCl. The protein with β-glucosidase activity was eluted with a retention volume corresponding to a molecular weight of 294 kDa. […] The protein was judged to be pure by SDS-polyacrylamide gel electrophoresis and the molecular weight was evaluated to be 81 kDa, representing most likely the monomeric form of the protein. […] The specific activity of the purified protein, designated as Ta βG—81, at 50° C. was determined to be 600 nkat/mg using 4-nitrophenyl-β-D-glucopyranoside as substrate (Bailey and Linko, 1990). […]

[2] = Endoglucanase activity on carboxymethyl cellulose; type: biochemical; settings: purified endoglucanase, 50° C., procedure of IUPAC 1987
How it was run: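 Endoglucanase activity of purified enzymes from Acremonium thermophilum ALKO4245 and Thermoascus aurantiacus ALKO4242 measured on carboxymethyl cellulose by the IUPAC 1987 standard procedure. Protein by Lowry for purified preparations; the A. thermophilum supernatant was pre-incubated 24 h at 70 °C before purification.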

B1: Ta EG_28: endoglucanase of Thermoascus aurantiacus ALKO4242, gene Ta cel5A, amino acid SEQ ID NO: 10 (protein)
chain: MKLGSLVLALSAARLTLSAPLADRKQETKRAKVFQWFGSNESGAEFGSQNLPGVEGKDYIWPDPNTIDTLISKGMNIFRVPFMMERLVPNSMTGSPDPNYLADLIATVNAITQKGAYAVVDPHNYGRYYNSIISSPSDFQTFWKTVASQFASNPLVIFDTNNEYHDMDQTLVLNLNQAAIDGIRSAGATSQYIFVEGNSWTGAWTWTNVNDNMKSLTDPSDKIIYEMHQYLDSDGSGTSATCVSSTIGQERITSATQWLRANGKKGIIGEFAGGANDVCETAITGMLDYMAQNTDVWTGAIWWAAGPWWGDYIFSMEPDNGIAYQQILPILTPYL
- pI of the purified protein [1]: about 3.5
- Specific activity on CMC [2]: 4290 nkat/mg
